IntAct's records for PubMed 31515488

B1: IQ motif and ubiquitin-like domain-containing protein (Homo sapiens), Q8NA54 (parent)
chain: MSNQQEKYEAQNIVNSTEESDDAFDTVTIPVPSEEPQESDQTEEHESGIEQFSESHAIHVEEQSDQSFSSLEPDNEQLMEEVISPRQVSYTPQHHEKQYAMQRPNDDSLAFLDKIKSVKESLQESVEDSLATVKVVLIPVGQEIVIPFKVDTILKYLKDHFSHLLGIPHSVLQIRYSGKILKNNETLVQHGVKPQEIVQVEIFSTNPDLYPVRRIDGLTDVSQIITVTVQTGLDQYQQVPVEIVKSDFHKPFLGGFRHKVTGVEYHNAGTQTVPKRIPERLSIFCRDTQTVFQKKNLQQTTNTTSTQMTNIGVYVSNMTDKLVTPGKYFSAAEYHAQRLKAVIVIQTYYRQWHAKIFVENLRRQKSLRLEWETQQELRKIREKEEWIKLDYHRRHNPKTNEDFEFLYNALEFWRQEELTRINQSFTGAERKAALCELLEKETQIIASIGRHRYIAYMANQEAAIQAFLDKCSAPKIWRTPNGKTIEMDTQFTIRARELQNIYKCIMLKNISQDERLDVLLTLKHTVKEHECKLTQEILELIDREVDLMMRGVKHHNLEGLRKRIATLFFHYIKTPLFNPEVAKYLKVPQDPLKFYKKIYFCHSCQLYLPSTEFSVSSTSRRIYRCRNCINLQNEAQKRESFLKYKCLLQQLYYTEADYEDDSKIAFLMQLQDIQYLTENIWASQSVLSACDNLSDLVMVRWNKSLEWSPWNCILLTKDEAAAHLKLTSIEEGYERSFIHKIKHKHILAKNYFSQVPVLASFILDDGEIDEIRWKYHSDTTPKIIESQRPPH
B2: Calcium-binding and coiled-coil domain-containing protein 2 (Homo sapiens), Q13137 (parent)
chain: MEETIKDPPTSAVLLDHCHFSQVIFNSVEKFYIPGGDVTCHYTFTQHFIPRRKDWIGIFRVGWKTTREYYTFMWVTLPIDLNNKSAKQQEVQFKAYYLPKDDEYYQFCYVDEDGVVRGASIPFQFRPENEEDILVVTTQGEVEEIEQHNKELCKENQELKDSCISLQKQNSDMQAELQKKQEELETLQSINKKLELKVKEQKDYWETELLQLKEQNQKMSSENEKMGIRVDQLQAQLSTQEKEMEKLVQGDQDKTEQLEQLKKENDHLFLSLTEQRKDQKKLEQTVEQMKQNETTAMKKQQELMDENFDLSKRLSENEIICNALQRQKERLEGENDLLKRENSRLLSYMGLDFNSLPYQVPTSDEGGARQNPGLAYGNPYSGIQESSSPSPLSIKKCPICKADDICDHTLEQQQMQPLCFNCPICDKIFPATEKQIFEDHVFCHSL
partner: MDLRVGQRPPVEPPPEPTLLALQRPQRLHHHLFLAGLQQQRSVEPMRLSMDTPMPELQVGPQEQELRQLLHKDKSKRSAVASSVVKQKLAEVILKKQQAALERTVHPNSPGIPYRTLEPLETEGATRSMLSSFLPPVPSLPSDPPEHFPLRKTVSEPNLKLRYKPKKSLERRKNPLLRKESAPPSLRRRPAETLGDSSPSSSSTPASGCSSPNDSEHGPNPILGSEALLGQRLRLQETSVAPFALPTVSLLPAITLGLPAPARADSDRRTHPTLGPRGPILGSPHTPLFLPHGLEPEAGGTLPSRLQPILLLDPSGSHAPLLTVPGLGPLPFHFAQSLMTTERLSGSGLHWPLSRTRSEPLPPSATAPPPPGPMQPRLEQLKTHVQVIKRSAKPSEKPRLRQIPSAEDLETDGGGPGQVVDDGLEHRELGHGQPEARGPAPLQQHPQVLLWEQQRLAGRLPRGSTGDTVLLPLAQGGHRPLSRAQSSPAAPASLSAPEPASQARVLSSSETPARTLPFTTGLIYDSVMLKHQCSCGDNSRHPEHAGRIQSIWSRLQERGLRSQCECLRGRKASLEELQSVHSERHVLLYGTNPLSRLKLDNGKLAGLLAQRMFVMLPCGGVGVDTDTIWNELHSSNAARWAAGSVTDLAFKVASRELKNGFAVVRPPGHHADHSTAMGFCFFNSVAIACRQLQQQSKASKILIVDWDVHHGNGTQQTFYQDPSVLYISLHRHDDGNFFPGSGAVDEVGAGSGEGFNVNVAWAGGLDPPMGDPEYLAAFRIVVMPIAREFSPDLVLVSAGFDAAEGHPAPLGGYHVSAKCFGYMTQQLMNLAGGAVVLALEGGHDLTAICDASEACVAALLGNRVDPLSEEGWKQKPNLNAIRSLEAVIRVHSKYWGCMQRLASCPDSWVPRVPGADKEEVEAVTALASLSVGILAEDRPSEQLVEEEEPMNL
B3: Tuftelin-interacting protein 11 (Homo sapiens), Q9UBB9 (parent)
chain: MSLSHLYRDGEGRIDDDDDERENFEITDWDLQNEFNPNRQRHWQTKEEATYGVWAERDSDDERPSFGGKRARDYSAPVNFISAGLKKGAAEEAELEDSDDEEKPVKQDDFPKDFGPRKLKTGGNFKPSQKGFAGGTKSFMDFGSWERHTKGIGQKLLQKMGYVPGRGLGKNAQGIINPIEAKQRKGKGAVGAYGSERTTQSMQDFPVVDSEEEAEEEFQKELSQWRKDPSGSKKKPKYSYKTVEELKAKGRISKKLTAPQKELSQVKVIDMTGREQKVYYSYSQISHKHNVPDDGLPLQSQQLPQSGKEAKAPGFALPELEHNLQLLIDLTEQEIIQNDRQLQYERDMVVNLFHELEKMTEVLDHEERVISNLSKVLEMVEECERRMQPDCSNPLTLDECARIFETLQDKYYEEYRMSDRVDLAVAIVYPLMKEYFKEWDPLKDCTYGTEIISKWKSLLENDQLLSHGGQDLSADAFHRLIWEVWMPFVRNIVTQWQPRNCDPMVDFLDSWVHIIPVWILDNILDQLIFPKLQKEVENWNPLTDTVPIHSWIHPWLPLMQARLEPLYSPIRSKLSSALQKWHPSDSSAKLILQPWKDVFTPGSWEAFMVKNIVPKLGMCLGELVINPHQQHMDAFYWVIDWEGMISVSSLVGLLEKHFFPKWLQVLCSWLSNSPNYEEITKWYLGWKSMFSDQVLAHPSVKDKFNEALDIMNRAVSSNVGAYMQPGARENIAYLTHTERRKDFQYEAMQERREAENMAQRGIGVAASSVPMNFKDLIETKAEEHNIVFMPVIGKRHEGKQLYTFGRIVIYIDRGVVFVQGEKTWVPTSLQSLIDMAK
partner: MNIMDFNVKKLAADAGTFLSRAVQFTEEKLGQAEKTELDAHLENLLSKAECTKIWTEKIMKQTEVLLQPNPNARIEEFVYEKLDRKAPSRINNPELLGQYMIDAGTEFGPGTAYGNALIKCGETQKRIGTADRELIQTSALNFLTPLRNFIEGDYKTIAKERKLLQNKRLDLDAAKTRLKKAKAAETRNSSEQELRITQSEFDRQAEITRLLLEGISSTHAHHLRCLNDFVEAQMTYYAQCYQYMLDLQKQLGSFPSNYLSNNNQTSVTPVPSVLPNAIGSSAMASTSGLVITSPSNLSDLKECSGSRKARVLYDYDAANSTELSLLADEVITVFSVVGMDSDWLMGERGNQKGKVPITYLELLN
B4: TNFAIP3-interacting protein 3 (Homo sapiens), Q96KP6 (parent)
chain: MAHFVQGTSRMIAAESSTEHKECAEPSTRKNLMNSLEQKIRCLEKQRKELLEVNQQWDQQFRSMKELYERKVAELKTKLDAAERFLSTREKDPHQRQRKDDRQREDDRQRDLTRDRLQREEKEKERLNEELHELKEENKLLKGKNTLANKEKEHYECEIKRLNKALQDALNIKCSFSEDCLRKSRVEFCHEEMRTEMEVLKQQVQIYEEDFKKERSDRERLNQEKEELQQINETSQSQLNRLNSQIKACQMEKEKLEKQLKQMYCPPCNCGLVFHLQDPWVPTGPGAVQKQREHPPDYQWYALDQLPPDVQHKANGLSSVKKVHP
B5: Homeobox protein VENTX (Homo sapiens), O95231 (parent)
chain: MRLSSSPPRGPQQLSSFGSVDWLSQSSCSGPTHTPRPADFSLGSLPGPGQTSGAREPPQAVSIKEAAGSSNLPAPERTMAGLSKEPNTLRAPRVRTAFTMEQVRTLEGVFQHHQYLSPLERKRLAREMQLSEVQIKTWFQNRRMKHKRQMQDPQLHSPFSGSLHAPPAFYSTSSGLANGLQLLCPWAPLSGPQALMLPPGSFWGLCQVAQEALASAGASCCGQPLASHPPTPGRPSLGPALSTGPRGLCAMPQTGDAF
partner: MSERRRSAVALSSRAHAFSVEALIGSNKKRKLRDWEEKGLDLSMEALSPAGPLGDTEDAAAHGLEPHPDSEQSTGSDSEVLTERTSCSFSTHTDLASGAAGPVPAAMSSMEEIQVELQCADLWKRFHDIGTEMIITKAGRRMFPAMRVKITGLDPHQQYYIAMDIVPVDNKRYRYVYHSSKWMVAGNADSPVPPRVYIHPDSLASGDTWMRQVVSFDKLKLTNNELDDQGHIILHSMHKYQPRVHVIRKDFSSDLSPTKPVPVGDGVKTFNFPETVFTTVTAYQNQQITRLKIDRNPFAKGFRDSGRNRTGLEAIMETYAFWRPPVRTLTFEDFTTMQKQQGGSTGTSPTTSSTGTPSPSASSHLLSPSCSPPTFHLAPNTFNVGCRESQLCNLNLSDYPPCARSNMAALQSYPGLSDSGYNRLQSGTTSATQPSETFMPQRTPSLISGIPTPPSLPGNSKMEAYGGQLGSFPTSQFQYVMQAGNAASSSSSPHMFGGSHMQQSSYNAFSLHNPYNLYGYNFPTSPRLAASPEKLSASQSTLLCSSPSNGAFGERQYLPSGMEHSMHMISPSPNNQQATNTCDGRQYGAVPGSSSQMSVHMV
B6: Notch homolog 2 N-terminal-like protein A (Homo sapiens), Q7Z3S9 (parent)
chain: MCVTYHNGTGYCKCPEGFLGEYCQHRDPCEKNRCQNGGTCVAQAMLGKATCRCASGFTGEDCQYSTSHPCFVSRPCLNGGTCHMLSRDTYECTCQVGFTGKECQWTDACLSHPCANGSTCTTVANQFSCKCLTGFTGQKCETDVNECDIPGHCQHGGTCLNLPGSYQCQCLQGFTGQYCDSLYVPCAPSPCVNGGTCRQTGDFTFECNCLPETVRRGTELWERDREVWNGKEHDEN
partner: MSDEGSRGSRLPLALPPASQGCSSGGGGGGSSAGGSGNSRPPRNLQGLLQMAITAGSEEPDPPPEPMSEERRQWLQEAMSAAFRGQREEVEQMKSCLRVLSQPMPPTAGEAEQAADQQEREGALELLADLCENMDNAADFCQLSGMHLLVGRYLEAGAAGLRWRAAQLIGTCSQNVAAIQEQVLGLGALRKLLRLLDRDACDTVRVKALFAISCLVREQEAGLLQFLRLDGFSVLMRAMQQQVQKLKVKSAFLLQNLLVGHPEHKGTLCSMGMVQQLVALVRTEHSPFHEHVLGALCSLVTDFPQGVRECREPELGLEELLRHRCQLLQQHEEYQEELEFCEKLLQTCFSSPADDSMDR

Variants of: B1
Conditions: with tri23_human TRIM23, P36406
Sequence of tri23_human TRIM23, P36406 (P36406 whole entry): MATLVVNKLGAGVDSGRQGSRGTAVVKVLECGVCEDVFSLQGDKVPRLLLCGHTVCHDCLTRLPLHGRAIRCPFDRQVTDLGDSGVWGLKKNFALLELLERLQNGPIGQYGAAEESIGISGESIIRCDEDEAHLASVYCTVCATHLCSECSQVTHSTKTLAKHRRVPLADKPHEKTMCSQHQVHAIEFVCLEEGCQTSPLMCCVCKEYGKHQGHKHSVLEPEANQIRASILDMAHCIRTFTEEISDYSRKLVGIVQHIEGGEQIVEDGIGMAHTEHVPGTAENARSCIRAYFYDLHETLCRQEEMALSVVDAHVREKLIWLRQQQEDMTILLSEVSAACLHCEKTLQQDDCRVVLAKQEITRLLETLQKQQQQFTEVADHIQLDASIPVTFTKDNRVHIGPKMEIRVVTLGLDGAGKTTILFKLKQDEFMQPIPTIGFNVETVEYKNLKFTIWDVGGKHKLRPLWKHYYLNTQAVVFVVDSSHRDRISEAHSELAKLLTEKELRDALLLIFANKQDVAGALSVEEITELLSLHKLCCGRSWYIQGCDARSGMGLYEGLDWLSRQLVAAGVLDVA

For V126M, which “effect of a mutation on the interaction” value is on record?
The value was “with no effect”.

Variants of: B2
Conditions: with hdac7_human HDAC7, Q8WUI4

With P389A as the variant, how does the “effect of a mutation on the interaction” value read?
The value was “with no effect”.

With T273A as the variant, how does the “effect of a mutation on the interaction” value read?
The value was “with no effect”.

Variants of: B3
Conditions: with shlb1_human SH3GLB1, Q9Y371

How did the “effect of a mutation on the interaction” value turn out when R8Q was run?
Its value is “with no effect”.

For S688L, which “effect of a mutation on the interaction” value is on record?
The value was “with no effect”.

Variants of: B4
Conditions: with taxb1_human TAX1BP1, Q86VP1
Sequence of taxb1_human TAX1BP1, Q86VP1 (Q86VP1 whole entry): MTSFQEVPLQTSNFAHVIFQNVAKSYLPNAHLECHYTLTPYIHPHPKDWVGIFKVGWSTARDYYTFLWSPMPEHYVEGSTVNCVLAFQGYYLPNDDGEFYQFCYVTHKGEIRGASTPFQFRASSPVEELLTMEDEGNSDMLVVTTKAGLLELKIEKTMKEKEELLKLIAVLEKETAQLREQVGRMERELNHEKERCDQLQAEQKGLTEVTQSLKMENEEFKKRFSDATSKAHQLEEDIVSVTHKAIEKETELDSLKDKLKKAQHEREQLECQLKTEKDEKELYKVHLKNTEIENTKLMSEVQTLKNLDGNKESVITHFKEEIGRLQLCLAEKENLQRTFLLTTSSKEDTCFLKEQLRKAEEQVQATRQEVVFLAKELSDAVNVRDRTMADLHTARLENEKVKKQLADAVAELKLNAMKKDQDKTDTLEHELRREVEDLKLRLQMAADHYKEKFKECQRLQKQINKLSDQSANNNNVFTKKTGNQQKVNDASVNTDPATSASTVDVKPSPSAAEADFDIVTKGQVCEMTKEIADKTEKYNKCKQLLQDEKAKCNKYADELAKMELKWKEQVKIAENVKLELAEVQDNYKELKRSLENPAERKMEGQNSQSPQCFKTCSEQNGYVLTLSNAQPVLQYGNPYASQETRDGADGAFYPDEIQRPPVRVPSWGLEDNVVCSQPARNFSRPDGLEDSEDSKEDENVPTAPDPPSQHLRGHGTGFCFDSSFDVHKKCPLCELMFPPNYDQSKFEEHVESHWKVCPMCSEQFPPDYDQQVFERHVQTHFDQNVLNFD

For K99E, which “effect of a mutation on the interaction” value is on record?
Its value is “with no effect”.

Variants of: B5
Conditions: with tbx15_human TBX15, Q96SF7

For M251V, which “effect of a mutation on the interaction” value is on record?
The value was “with no effect”.

How did the “effect of a mutation on the interaction” value turn out when L42P was run?
The value was “with no effect”.

For A226E, which “effect of a mutation on the interaction” value is on record?
The value was “with no effect”.

Variants of: B6
Conditions: with hpbp1_human HSPBP1, Q9NZL4

With R74Q as the variant, how does the “effect of a mutation on the interaction” value read?
The value was “with no effect”.

For A115T, which “effect of a mutation on the interaction” value is on record?
Its value is “with no effect”.
